B1: FEM1A (parent)
chain: PCCSSSPEEPLNGESYESCCPTSR

Variants of: B1
Experiment: protein stability index of a GFP-peptide fusion (GPS, HEK-293T) (PSI 1-6); higher = more stable
Details: c terminus: a fixed tail appended
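Note: lentivirally expressed fusions sorted by FACS into six bins by GFP to DsRed ratio, PSI derived from sequencing read proportions per bin multiplied by bin number.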

Protein stability index, by site and new letter:
C19: N 3.67 | L 3.28 | H 3.57 | A 3.94 | Q 4.09 | Y 3.72 | S 4.11 | K 4.25 | T 3.56 | R 3.97 | W 1.98 | F 3.76 | G 3.61 | E 4.54 | M 3.49 | I 3.72 | D 4.5 | P 4.08 | V 3.89
R24: M 4.6 | K 4.75 | G 5.14 | W 3.05 | Q 5.08 | N 4.96 | D 5.19 | C 4.33 | A 4.81 | V 4.34 | I 4.39 | S 5.27 | F 4.78 | L 4.81 | E 5.04 | T 4.97 | Y 4.25 | H 4.75 | P 4.81
E17: C 4.12 | R 2.67 | I 2.83 | T 3.56 | K 3.25 | F 3.55 | G 3.43 | Y 2.52 | P 3.7 | N 3.37 | S 2.51 | H 3.44 | V 2.87 | W 1.72 | A 3.04 | L 2.37 | D 3.81 | M 3.44
S18: C 4.24 | T 4.19 | A 4.71 | H 3.74 | L 3.01 | R 3.11 | I 3.03 | D 4.23 | W 2.5 | N 3.68 | P 4 | M 3.06 | K 3.64 | F 2.89 | V 3.45 | Y 3.07 | E 4 | Q 4.02
C20: I 3.54 | V 3.47 | G 3.25 | D 4.12 | W 3.69 | H 3.32 | F 2.91 | E 4.24 | S 4.14 | Q 3.54 | N 4.35 | A 3.53 | K 3.31 | R 4.08 | M 3.18 | T 3.91 | P 3.06 | L 3.7 | Y 3.38
Y16: R 3.35 | S 3.7 | T 4.37 | W 3.2 | V 4.35
T22: E 4.53 | R 3.09 | H 3.37 | L 3.66 | F 3.36 | V 3.35 | Q 4.21 | K 3.79 | W 3.78 | A 3.99 | G 3.53 | C 4.41 | N 3.9 | D 4.61 | I 3.38 | S 4.04 | Y 3.5 | M 3.45 | P 3.13
P21: V 3.1 | G 3.78 | C 3.92 | M 2.28 | L 3.51 | K 3.81 | T 3.76 | Y 3.01 | R 4.13 | A 3.68 | S 3.09 | Q 4.17 | N 3.81 | E 4.19 | H 3.71 | F 3.04 | I 2.6 | W 2.62 | D 5
S23: H 3.6 | R 2.95 | F 3.22 | Y 3.09 | T 4.13 | L 3.86 | E 4.42 | V 3.07 | I 3.53 | G 3.75 | M 4.05 | K 4.18 | N 4.1 | C 4.2 | Q 4.31 | A 4.35 | P 3.52 | W 3.43 | D 5

— the supplement of paper PMC10567573
